{
  "source": "patent US20240270846A1",
  "about": "(published 2024)",
  "data": [
    {"biological_target": "T1, CD3 epsilon homodimer protein (UniProt P07766 23-126)", "T1 construct": "Construct of the homodimer is not described; also called CD3 (CD3 epsilon)", "T1 sequence (P07766 23-126)": "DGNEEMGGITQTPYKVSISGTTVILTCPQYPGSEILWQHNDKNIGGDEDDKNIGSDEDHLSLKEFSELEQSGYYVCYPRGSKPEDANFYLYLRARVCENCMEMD", "assay": "SPR Biacore T200, CD3e homodimer on chip, antibody analyte;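 note: CD3 epsilon homodimer amine-coupled on CM4 sensor chip, antibodies injected as analyte at 25 °C in HBS-EP+, ratio ≥0.8 taken as binding retained versus unaltered parent antibody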", "values": [
      {"binder": "GLS3000 G89W one-arm antibody (antibody, human IgG1, kappa, L234A L235A, N297A, name in Kabat numbering) light: DIVMTQSPLSLPVTPGEPASISCRSSQSLVHSNRNTYLHWYQQKPGQAPRLLIYKVSNRFSGVPDRFSGSGSGTDFTLKISRVEAEDVGVYYCWQGTQVPYTFGQGTKLEIKRTVAAPSVFIFPPSDEQLKSGTASVVCLLNNFYPREAKVQWKVDNALQSGNSQESVTEQDSKDSTYSLSSTLTLSKADYEKHKVYACEVTHQGLSSPVTKSFNRGEC heavy: QVQLVESGGGVVQPGRSLRLSCAASGFTFSNAWMHWVRQAPGKGLEWVAQIKAKSNNYATYYAESVKGRFTISRDDSKNSLYLQMNSLKTEDTAVYYCRYVHYGAYYGVDAWGQGTTVTVSSASTKGPSVFPLAPSSKSTSGGTAALGCLVKDYFPEPVTVSWNSGALTSGVHTFPAVLQSSGLYSLSSVVTVPSSSLGTQTYICNVNHKPSNTKVDKKVEPKSCDKTHTCPPCPAPEAAGGPSVFLFPPKPKDTLMISRTPEVTCVVVDVSHEDPEVKFNWYVDGVEVHNAKTKPREEQYASTYRVVSVLTVLHQDWLNGKEYKCKVSNKALPAPIEKTISKAKGQPREPQVYTLPPSRCELTKNQVSLSCAVKGFYPSDIAVEWESNGQPENNYKTTPPVLDSDGSFFLVSKLTVDKSRWQQGNVFSCSVMHEALHNHYTQKSLSLSPDYKDDDDK EPKSSDKTHTCPPCPAPELLGGPSVFLFPPKPKDTLMISRTPEVTCVVVDVSHEDPEVKFNWYVDGVEVHNAKTKPREEQYNSTYRVVSVLTVLHQDWLNGKEYKCKVSNKALPAPIEKTISKAKGQPREPQVCTLPPSRDELTKNQVSLWCLVKGFYPSDIAVEWESNGQPENNYKTTPPVLDSDGSFFLYSKLTVDKSRWQQGNVFSCSVMHEALHNRYTQKSLSLSP", "ratio of amounts bound (altered form/GLS3000)": 0.5},
      {"binder": "GLS3000 G91D one-arm antibody (antibody, human IgG1, kappa, L234A L235A, N297A, name in Kabat numbering) light: DIVMTQSPLSLPVTPGEPASISCRSSQSLVHSNRNTYLHWYQQKPGQAPRLLIYKVSNRFSGVPDRFSGSGSGTDFTLKISRVEAEDVGVYYCGQDTQVPYTFGQGTKLEIKRTVAAPSVFIFPPSDEQLKSGTASVVCLLNNFYPREAKVQWKVDNALQSGNSQESVTEQDSKDSTYSLSSTLTLSKADYEKHKVYACEVTHQGLSSPVTKSFNRGEC heavy: QVQLVESGGGVVQPGRSLRLSCAASGFTFSNAWMHWVRQAPGKGLEWVAQIKAKSNNYATYYAESVKGRFTISRDDSKNSLYLQMNSLKTEDTAVYYCRYVHYGAYYGVDAWGQGTTVTVSSASTKGPSVFPLAPSSKSTSGGTAALGCLVKDYFPEPVTVSWNSGALTSGVHTFPAVLQSSGLYSLSSVVTVPSSSLGTQTYICNVNHKPSNTKVDKKVEPKSCDKTHTCPPCPAPEAAGGPSVFLFPPKPKDTLMISRTPEVTCVVVDVSHEDPEVKFNWYVDGVEVHNAKTKPREEQYASTYRVVSVLTVLHQDWLNGKEYKCKVSNKALPAPIEKTISKAKGQPREPQVYTLPPSRCELTKNQVSLSCAVKGFYPSDIAVEWESNGQPENNYKTTPPVLDSDGSFFLVSKLTVDKSRWQQGNVFSCSVMHEALHNHYTQKSLSLSPDYKDDDDK EPKSSDKTHTCPPCPAPELLGGPSVFLFPPKPKDTLMISRTPEVTCVVVDVSHEDPEVKFNWYVDGVEVHNAKTKPREEQYNSTYRVVSVLTVLHQDWLNGKEYKCKVSNKALPAPIEKTISKAKGQPREPQVCTLPPSRDELTKNQVSLWCLVKGFYPSDIAVEWESNGQPENNYKTTPPVLDSDGSFFLYSKLTVDKSRWQQGNVFSCSVMHEALHNRYTQKSLSLSP", "ratio of amounts bound (altered form/GLS3000)": 0.16},
      {"binder": "GLS3000 G91A one-arm antibody (antibody, human IgG1, kappa, L234A L235A, N297A, name in Kabat numbering) light: DIVMTQSPLSLPVTPGEPASISCRSSQSLVHSNRNTYLHWYQQKPGQAPRLLIYKVSNRFSGVPDRFSGSGSGTDFTLKISRVEAEDVGVYYCGQATQVPYTFGQGTKLEIKRTVAAPSVFIFPPSDEQLKSGTASVVCLLNNFYPREAKVQWKVDNALQSGNSQESVTEQDSKDSTYSLSSTLTLSKADYEKHKVYACEVTHQGLSSPVTKSFNRGEC heavy: QVQLVESGGGVVQPGRSLRLSCAASGFTFSNAWMHWVRQAPGKGLEWVAQIKAKSNNYATYYAESVKGRFTISRDDSKNSLYLQMNSLKTEDTAVYYCRYVHYGAYYGVDAWGQGTTVTVSSASTKGPSVFPLAPSSKSTSGGTAALGCLVKDYFPEPVTVSWNSGALTSGVHTFPAVLQSSGLYSLSSVVTVPSSSLGTQTYICNVNHKPSNTKVDKKVEPKSCDKTHTCPPCPAPEAAGGPSVFLFPPKPKDTLMISRTPEVTCVVVDVSHEDPEVKFNWYVDGVEVHNAKTKPREEQYASTYRVVSVLTVLHQDWLNGKEYKCKVSNKALPAPIEKTISKAKGQPREPQVYTLPPSRCELTKNQVSLSCAVKGFYPSDIAVEWESNGQPENNYKTTPPVLDSDGSFFLVSKLTVDKSRWQQGNVFSCSVMHEALHNHYTQKSLSLSPDYKDDDDK EPKSSDKTHTCPPCPAPELLGGPSVFLFPPKPKDTLMISRTPEVTCVVVDVSHEDPEVKFNWYVDGVEVHNAKTKPREEQYNSTYRVVSVLTVLHQDWLNGKEYKCKVSNKALPAPIEKTISKAKGQPREPQVCTLPPSRDELTKNQVSLWCLVKGFYPSDIAVEWESNGQPENNYKTTPPVLDSDGSFFLYSKLTVDKSRWQQGNVFSCSVMHEALHNRYTQKSLSLSP", "ratio of amounts bound (altered form/GLS3000)": 0.27},
      {"binder": "GLS3000 G91P one-arm antibody (antibody, human IgG1, kappa, L234A L235A, N297A, name in Kabat numbering) light: DIVMTQSPLSLPVTPGEPASISCRSSQSLVHSNRNTYLHWYQQKPGQAPRLLIYKVSNRFSGVPDRFSGSGSGTDFTLKISRVEAEDVGVYYCGQPTQVPYTFGQGTKLEIKRTVAAPSVFIFPPSDEQLKSGTASVVCLLNNFYPREAKVQWKVDNALQSGNSQESVTEQDSKDSTYSLSSTLTLSKADYEKHKVYACEVTHQGLSSPVTKSFNRGEC heavy: QVQLVESGGGVVQPGRSLRLSCAASGFTFSNAWMHWVRQAPGKGLEWVAQIKAKSNNYATYYAESVKGRFTISRDDSKNSLYLQMNSLKTEDTAVYYCRYVHYGAYYGVDAWGQGTTVTVSSASTKGPSVFPLAPSSKSTSGGTAALGCLVKDYFPEPVTVSWNSGALTSGVHTFPAVLQSSGLYSLSSVVTVPSSSLGTQTYICNVNHKPSNTKVDKKVEPKSCDKTHTCPPCPAPEAAGGPSVFLFPPKPKDTLMISRTPEVTCVVVDVSHEDPEVKFNWYVDGVEVHNAKTKPREEQYASTYRVVSVLTVLHQDWLNGKEYKCKVSNKALPAPIEKTISKAKGQPREPQVYTLPPSRCELTKNQVSLSCAVKGFYPSDIAVEWESNGQPENNYKTTPPVLDSDGSFFLVSKLTVDKSRWQQGNVFSCSVMHEALHNHYTQKSLSLSPDYKDDDDK EPKSSDKTHTCPPCPAPELLGGPSVFLFPPKPKDTLMISRTPEVTCVVVDVSHEDPEVKFNWYVDGVEVHNAKTKPREEQYNSTYRVVSVLTVLHQDWLNGKEYKCKVSNKALPAPIEKTISKAKGQPREPQVCTLPPSRDELTKNQVSLWCLVKGFYPSDIAVEWESNGQPENNYKTTPPVLDSDGSFFLYSKLTVDKSRWQQGNVFSCSVMHEALHNRYTQKSLSLSP", "ratio of amounts bound (altered form/GLS3000)": 0.27},
      {"binder": "GLS3000 G91S one-arm antibody (antibody, human IgG1, kappa, L234A L235A, N297A, name in Kabat numbering) light: DIVMTQSPLSLPVTPGEPASISCRSSQSLVHSNRNTYLHWYQQKPGQAPRLLIYKVSNRFSGVPDRFSGSGSGTDFTLKISRVEAEDVGVYYCGQSTQVPYTFGQGTKLEIKRTVAAPSVFIFPPSDEQLKSGTASVVCLLNNFYPREAKVQWKVDNALQSGNSQESVTEQDSKDSTYSLSSTLTLSKADYEKHKVYACEVTHQGLSSPVTKSFNRGEC heavy: QVQLVESGGGVVQPGRSLRLSCAASGFTFSNAWMHWVRQAPGKGLEWVAQIKAKSNNYATYYAESVKGRFTISRDDSKNSLYLQMNSLKTEDTAVYYCRYVHYGAYYGVDAWGQGTTVTVSSASTKGPSVFPLAPSSKSTSGGTAALGCLVKDYFPEPVTVSWNSGALTSGVHTFPAVLQSSGLYSLSSVVTVPSSSLGTQTYICNVNHKPSNTKVDKKVEPKSCDKTHTCPPCPAPEAAGGPSVFLFPPKPKDTLMISRTPEVTCVVVDVSHEDPEVKFNWYVDGVEVHNAKTKPREEQYASTYRVVSVLTVLHQDWLNGKEYKCKVSNKALPAPIEKTISKAKGQPREPQVYTLPPSRCELTKNQVSLSCAVKGFYPSDIAVEWESNGQPENNYKTTPPVLDSDGSFFLVSKLTVDKSRWQQGNVFSCSVMHEALHNHYTQKSLSLSPDYKDDDDK EPKSSDKTHTCPPCPAPELLGGPSVFLFPPKPKDTLMISRTPEVTCVVVDVSHEDPEVKFNWYVDGVEVHNAKTKPREEQYNSTYRVVSVLTVLHQDWLNGKEYKCKVSNKALPAPIEKTISKAKGQPREPQVCTLPPSRDELTKNQVSLWCLVKGFYPSDIAVEWESNGQPENNYKTTPPVLDSDGSFFLYSKLTVDKSRWQQGNVFSCSVMHEALHNRYTQKSLSLSP", "ratio of amounts bound (altered form/GLS3000)": 0.26},
      {"binder": "GLS3000 G91E one-arm antibody (antibody, human IgG1, kappa, L234A L235A, N297A, name in Kabat numbering) light: DIVMTQSPLSLPVTPGEPASISCRSSQSLVHSNRNTYLHWYQQKPGQAPRLLIYKVSNRFSGVPDRFSGSGSGTDFTLKISRVEAEDVGVYYCGQETQVPYTFGQGTKLEIKRTVAAPSVFIFPPSDEQLKSGTASVVCLLNNFYPREAKVQWKVDNALQSGNSQESVTEQDSKDSTYSLSSTLTLSKADYEKHKVYACEVTHQGLSSPVTKSFNRGEC heavy: QVQLVESGGGVVQPGRSLRLSCAASGFTFSNAWMHWVRQAPGKGLEWVAQIKAKSNNYATYYAESVKGRFTISRDDSKNSLYLQMNSLKTEDTAVYYCRYVHYGAYYGVDAWGQGTTVTVSSASTKGPSVFPLAPSSKSTSGGTAALGCLVKDYFPEPVTVSWNSGALTSGVHTFPAVLQSSGLYSLSSVVTVPSSSLGTQTYICNVNHKPSNTKVDKKVEPKSCDKTHTCPPCPAPEAAGGPSVFLFPPKPKDTLMISRTPEVTCVVVDVSHEDPEVKFNWYVDGVEVHNAKTKPREEQYASTYRVVSVLTVLHQDWLNGKEYKCKVSNKALPAPIEKTISKAKGQPREPQVYTLPPSRCELTKNQVSLSCAVKGFYPSDIAVEWESNGQPENNYKTTPPVLDSDGSFFLVSKLTVDKSRWQQGNVFSCSVMHEALHNHYTQKSLSLSPDYKDDDDK EPKSSDKTHTCPPCPAPELLGGPSVFLFPPKPKDTLMISRTPEVTCVVVDVSHEDPEVKFNWYVDGVEVHNAKTKPREEQYNSTYRVVSVLTVLHQDWLNGKEYKCKVSNKALPAPIEKTISKAKGQPREPQVCTLPPSRDELTKNQVSLWCLVKGFYPSDIAVEWESNGQPENNYKTTPPVLDSDGSFFLYSKLTVDKSRWQQGNVFSCSVMHEALHNRYTQKSLSLSP", "ratio of amounts bound (altered form/GLS3000)": 0.16}
    ]}
  ]
}
